B1: Hypermethylated in cancer 1 protein (Homo sapiens), Q14526 (parent)
chain: MTFPEADILLKSGECAGQTMLDTMEAPGHSRQLLLQLNNQRTKGFLCDVIIVVQNALFRAHKNVLAASSAYLKSLVVHDNLLNLDHDMVSPAVFRLVLDFIYTGRLADGAEAAAAAAVAPGAEPSLGAVLAAASYLQIPDLVALCKKRLKRHGKYCHLRGGGGGGGGYAPYGRPGRGLRAATPVIQACYPSPVGPPPPPAAEPPSGPEAAVNTHCAELYASGPGPAAALCASERRCSPLCGLDLSKKSPPGSAAPERPLAERELPPRPDSPPSAGPAAYKEPPLALPSLPPLPFQKLEEAAPPSDPFRGGSGSPGPEPPGRPDGPSLLYRWMKHEPGLGSYGDELGRERGSPSERCEERGGDAAVSPGGPPLGLAPPPRYPGSLDGPGAGGDGDDYKSSSEETGSSEDPSPPGGHLEGYPCPHLAYGEPESFGDNLYVCIPCGKGFPSSEQLNAHVEAHVEEEEALYGRAEAAEVAAGAAGLGPPFGGGGDKVAGAPGGLGELLRPYRCASCDKSYKDPATLRQHEKTHWLTRPYPCTICGKKFTQRGTMTRHMRSHLGLKPFACDACGMRFTRQYRLTEHMRIHSGEKPYECQVCGGKFAQQRNLISHMKMHAVGGAAGAAGALAGLGGLPGVPGPDGKGKLDFPEGVFAVARLTAEQLSLKQQDKAAAAELLAQTTHFLHDPKVALESLYPLAKFTAELGLSPDKAAEVLSQGAHLAAGPDGRTIDRFSPT

Variants of: B1
Conditions: with ctbp2_mouse Ctbp2, P56546
ctbp2_mouse Ctbp2, P56546, sequence (P56546 whole entry): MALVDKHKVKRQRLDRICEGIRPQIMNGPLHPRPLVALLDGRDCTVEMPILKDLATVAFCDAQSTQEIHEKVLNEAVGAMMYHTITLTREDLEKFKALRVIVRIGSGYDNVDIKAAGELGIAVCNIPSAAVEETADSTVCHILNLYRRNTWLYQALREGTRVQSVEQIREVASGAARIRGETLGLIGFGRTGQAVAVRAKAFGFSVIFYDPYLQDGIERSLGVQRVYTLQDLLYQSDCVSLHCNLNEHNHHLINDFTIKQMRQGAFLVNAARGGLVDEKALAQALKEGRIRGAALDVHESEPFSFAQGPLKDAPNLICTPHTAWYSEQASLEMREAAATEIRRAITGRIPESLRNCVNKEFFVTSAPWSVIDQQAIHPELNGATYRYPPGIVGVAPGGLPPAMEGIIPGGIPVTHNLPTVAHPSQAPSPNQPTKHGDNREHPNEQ

Variant	effect of a mutation on the interaction
L244A	disrupting interaction

Variants of: B1
Conditions: with ctbp1_mouse Ctbp1, O88712

Variant	effect of a mutation on the interaction
L244A	disrupting interaction

Reference: IntAct's records for PubMed 16762039
